In the RNAGym collection of RNA variant scans (doi:10.1073/pnas.2313332121):

B1: TPR t1 (parent)
chain: GACCAAUCUGCCCUCAGAGCUCGAGAACAUCUUCGGAUGCAGAGGAGGCAGGCUUCGGUGGCGCGAUAGCGCCAACGUCCUCAACCUCCAAUGCAUCCCACCACAUGAUGAUGCCUGAAGAGCCUUGGUUUUUUG

Variants of: B1
Test: polymerase ribozyme fitness, log enrichment relative to wild type (log ratio); higher = more active; in vitro selection for triplet polymerase activity
Summary of the method: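 For each subunit of a heterodimeric triplet polymerase ribozyme, a mutant library was built by PCR and transcribed, then taken through a single in vitro selection round in triplicate. Selection involved annealing to a biotinylated primer, the partner subunit and triplets, incubation frozen at −7 °C, gel excision of extended constructs, capture on streptavidin beads and RT-PCR. Genotypes were retained after Illumina sequencing of inputs and outputs only with ≥10 input reads and ≥1 read in each output. Fitness is defined as the logarithm of a genotype's enrichment relative to wild-type enrichment, using inverse-variance-weighted averages across replicates, with the logarithm taken to base 2.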

Variant | polymerase ribozyme fitness (log ratio)
GUCCGAUCUGCCCUCAGUGCUCGAGAACAUCUUCGGAUGCAGCGGAGGCAGGCUUUGGUGGCGCGAUAGCGCCAACGUCCUCAAACUCCAAUGCAUCCCACCACAUGAUGAUGCCUGAAGAGCCUCGGAUUUUUG [A2U A5G A18U A43C C56U C85A U126C U129A] | -3.94
GGCCAAUCUGCCCUCAGAGCUCGAGAACAUCCUCGGAUGGAGAGGAGGAAGGCUUCGGUGGCGCGAUGGCGCUAACGUCCUCAACCUCCAAUGCAUCCCACCACAUGAUGAUGCCUGAAGAGCCUUGGUUUUUUG [A2G U32C C40G C49A A68G C73U] | -5.24
GGCCAAUCUGCCCUCAGAGCUCGAGAACAUCUUCGGAUGCAGAGGAGGCAGGCUUCGGUGGCGCGAUAGCGCCAACGUCCUCAACCUCCAAUACAUCCCACCACAUGAUGAUGCCUGAAUAGCCUUGGUUUUUUG [A2G G93A G120U] | -0.278
GUCCACUCUGCCCUCAGAGCUCGAGAACAUCUUCGGAUGCAGAGGAGGCAGGCUUCGGUGGCGCGAUAGCGCCAAAGUCCUCAACCUCCAAUGCAUCCCACCACAUGAUGAUGCUUGAAGAGCCUAGGCAUUAUG [A2U A6C C76A C115U U126A U129C U130A U133A] | -4.89
GGCCAAUCUGCCCUCAGAGCUCGAGAACAUCUUCGGAUGCAGAGGAGGCAGGCUUCGGUGGCGCGAUAGCGCCAACGUCCUCAACCUCCAAUGCAUCCCACCACAUGAUGAUGCCUGAAGAGCCUUGGUUUUUUU [A2G G135U] | -0.44
GGCCAAUCUGCCCUCAGAGCUCGAGAACAUCUUCGGAUGCAGAGGAGGCAGGCUUCGGUGGCGCGAUAGCGCCAACGAUCUCAACCUCCAAUGCAUCCCACCACAUGAUGAUGCCUGAAGAGCCUUGGUUUUUUG [A2G U78A C79U] | 0.0458
GGCCAAUCUGCCCUCAGAGCUCGAGAACAUCUUCGGAUGCAGAGAAGGCAGGCUUCGGUGGCUCGAUAGCGCCAACGUCCUCAACCUCCAAUGCAUCCCACCACAUGAUGAAGCCUGAAGAGCCUUGGUUUUUUG [A2G G45A G63U U112A] | -0.348
GUCCAUUCUGCCCUCAGAGCUCGAGAACAUCUUCGGAUGCAGAGGAGGCAGGCUUCUGUGGCGCGAUAGCGCCAACGUCCUCAACCUCCAAUGCAUCCCACCACAUGAUGAUGCCUGAACAGCCUUGGUUUUUUG [A2U A6U G57U G120C] | -4.53
GGCCAAUCUGCCCUCAGAGCUCGAGAACAUCUUCGGAUGCAGAGGAGGCAGGCUUCGGUGACGCGAUAGCGCCAACGUCCUCAACCUCCAAUGCAUCCCACUACAUGAAGAUGCCUGAAGAGCCUUGGUUUUUUG [A2G G61A C102U U109A] | -5.41
GGCCAAUCUGCCCUCAGAGCUCGAGAACAUCUUCGGAUGCAGAGGAGGCAGGCUUCGGUGGCCCGAUAGCGCCCACGUCCUCAACCCCCAAUGCAUCCCUCCACAUGAUGAUGCCUGAAGAGCCUUGGUUUUUUG [A2G G63C A74C U87C A100U] | -4.51
GUCCAAUCUGCCCUCUGAGCUCGAGAACAUCUUCGGAUGCAGAGGAGGCAGGCUUCGGUGGCGCGAUAGCGGCAACGUCCUCAACUUCCAAUGCAUCCCACCACAUGAUGAUGCCUGAAGAGCCUUGGUUUUUUG [A2U A16U C72G C86U] | -4.45
GGCCAAUCUGCCCUCAGAGCUCGAGAACAUCUUCGGAUGCAGAGGAGGCAGGCUUCGGUGCCGCGAUAGCGCCAACGUCCUCAACCUUCAAUGCAUCCCACCACAUGAUGAUGCCUGAAGAGCAUUGGUUUUUUG [A2G G61C C88U C124A] | -0.51
GUCCGAUCGGCCCUCAGAGCUCGAGAACAUCUUCGGAUGCCGAGGAGGCAGGCUUCGGUGGCGCGAUAGCGCCAACGUCCUCAACCUCCAAUGCAUCCCACCACAUGAUGAUGCCUGAAGAGCCUUGGUUUUUUG [A2U A5G U9G A41C] | -2.01
GGCCAAUCUGCCCUCAGAGCUCGAGAACAUCUUCGGAUGCAGAGUAGGCAGGCUUCGGUGGCGCGAUAGCGCCAACGUCCUCAACCUCCAAUGCAUCCCACCACAUGAUGAUGCCUGAAGAGCCUUGGUUUUUUG [A2G G45U] | -1.83
GGCCAAUCGGCCCUCAGAGCUCGAGAACAUCUUCGGAUGCAGAGGAGGCAGGCUUUGGUGGCGCGAUAGCGCCAACGUCCUCAACCUACAAUGCAUCCCACCACAUGAUGAUGCCUGAAGAGCCUUGGUUUUUUG [A2G U9G C56U C88A] | -1.54
GGCCAAUCUGCCCUCAGAGCUCGAGAACAUCUUCUGAUGCAGAGGAGGCAGGCUUCGGUGGCGCGAUAGCGCCAACGUCCUCAACCUCCAAUGCAUCCCACCACAUGAUGAUGCCUGAAGAGCAUUGGUUUUUUG [A2G G35U C124A] | -4.09
GGCCAAUCUGCCCUCACAGCUCGAGAACAUCUUCGGAUGCAGAGGAGGCAGGCUUUGGUGGCGCGAUAGCGCCAACGUCCUCAACCUCCAAUGCAUCCCACCACAUGAUGAUGCCUGAAGAGCCUUGGUUUUUUG [A2G G17C C56U] | -4.71
GUCCAUUCUGCCUUCAGAGUUCGAGAACAUCUUCGGAUGCAGAGGAGGCAGGCUUCAGUGGCGCGAUAGCGCCAACGUCCUGAACCUCCAAUGCAUCCCACCACAUGAUGAUGCCUGAAGAGCCUUGGUUUUUUG [A2U A6U C13U C20U G57A C82G] | -4.79
GGCCAAUCUGCCCUCAGAGCUCGAGAACAUCUUCGGAUGCAGAGGAGGCAGGCUUCGGUGGCGCGAUAGCGCCAACGUCCUCAACCUCCAAUGCAUCCCACCACAGGAUGAUGCCUGAAGAGCCGUGGUUUUUUG [A2G U106G U125G] | -2.92
GGCCAAUCUGCCCUCAGAGCUCGAGAACAUCUUCGGAUGCAGAGGAAGCAGGCUUCGGUGGCGCGAUAGCGGCAACGUCCUCAACCUCCAAUGCAUCCCACCACAUGAUGAUGCCUGAAGAGCCUUGGUUUUUUG [A2G G47A C72G] | -0.743
GGCCAAUCUGCCCUCAGAGCUCGAGAACAUCUUCGGAUGCAGAGGAGGCAGGCUUCGGUGGCGCGAUAGCGCCAACGUCCUCAACCUCCAAUGCAUCCCACCACAUGAUGAUGCCUGAAAAGCCUUGGCUUUUUU [A2G G120A U129C G135U] | -1.81

Variant | polymerase ribozyme fitness (log ratio)
GGCCAAUCUGCCCUCAGAGCUCGAGAACAUCUUCGGAUGCAGAGGAGGCAGGCUUCGGUGGCGCGAUAGCGCCAACUUCCUGAACCUCCAAUGCAUCCCACCACAUGAUGAUGCCUGAAGAGCCUUGGUUUUUUG [A2G G77U C82G] | -0.807
GGCCAAUCUGCCCUCAGAGCUCGAGAACAUCUUCGGAUGCAGAGGAGGCAGGCUUCGGUGGCGCGAUAGCGCCAACGCCCUCAACCUCCAAUGCAUCCCACCACAUGAUGAUGCCUGAAGAGCCUUGGUUUUUUG [A2G U78C] | -0.357
GGCCAAUCUGCCCUCAGAGCUCGAGAACAUCUUCGGAUGCAGAGGAGGCAGACUUCGGUGGCGCGAUAGCGCCAACGUCCUCAAUCUCCAAUGCAUCCCACCACAUGAUGAUGCCUGAAGAGCCUUGGUUUUUUG [A2G G52A C85U] | -1.87
GUCCGAUCUGCCCUCAGAGCUCGAGAACAUCUUCGGAUGCAGAGGAGGCAGGCUUCGGUCGCGCGAUAGCGCCAACGUCCUCAACCUCCAAUGCAUCCCACCACAUGAUGAUGCCUGAAGAGCCUUGGUUUUUUG [A2U A5G G60C] | -4
GGCCAAUCUGCCCUCAGAGCUCGAGAACAUCUUCGGAUGCAGAGGAGGCAGGCUUCGGUGGCGCGAUAGCGCCAACGUCCUCAACCGCCAAUGCUUCCCACCACAUGAUAAUGCCUGAAGAGCCUUGGUUUUUUG [A2G U87G A95U G110A] | -0.979
GGCCAACCUUCCCUCAGAGCUCGAGAACAUCUUCGGAUGCAGAGGAGGCAGCCUUCGGUGGCGCGAUAGCGCCAACGUCCUCAACCUCCAAUGCAUCCCACCACAUGAUGAUGCCUGAAGAGCCUUGGUUUUUUG [A2G U7C G10U G52C] | -1.99
GUCCAAUCUGCCCUCAGAGCUCGAGAACAUCUUCGGAUGCAGAGGAGGCAGGCUUCGGUGGCGCGAUAGCGCCAACGUCCUCAACCUCCAAUGCAUCCCACCACAUGAUGAUGCCUGAAGAGCCUUGGUUUUUUG [A2U] | -2.07
GUCCCAUCUGCCUUCAGAGCUCGAGAACAUCUUCGGAUGCAGAGGAGACAGGCUUCGGUGGCGCGAUAGAGCCAACGUCCUCAACCUCCAAUGCAUCCCACCACAUGAUGAUGCCUGAAGAGCCUUGGUUUUUUG [A2U A5C C13U G48A C70A] | -4.35
GGCCAAUCUGCCCUCAGAGCUCGAGAACAUCUUCGGAUGCAGAGGAGGCAGGCUUCAGUGACGCGAUAGCGCCAACGUCCUCAACCUCCAAUGCAUCCCACCACAUGAUGAUGCCUUAAGAGCCUUGGUUUUUUG [A2G G57A G61A G117U] | -3.55
GGCCAACCCGCCCUCAGAGCUCGAGAACAUCUUCGGAUGCAGAGGAGGCAUGCUUCGGUGGCGCGAUAGCGCCAACGUCCUCAACCUCCAAUGCAUCCCACCACAUGAUGAUGCCUGAAGAGCCUUGGUUUUUUG [A2G U7C U9C G51U] | -2.87
GGCCAAUCUGCCCGCAGAGCUCGAGAACAUCUUCGGAUGCAGAGGAGGCAGGCUUCGGUGGCGCGAUAGAGCCAACGUCCUCAACCUCCAAUGCAUCCCAGCACAUGAUGAUGCCUGAAUAGCCUUCGUUUUUUG [A2G U14G C70A C101G G120U G127C] | -3.71
GGCCAAUCUGCCCUCAGAGCUCGAGAACAUCUUCGGAUGCAGAGGAGGCAGGCUUCGGUGGCGCGAUAACGCCAACGUCCUCAACCUCCAAUGCAUCCCACCACAUGAUGAUGCCUGAAGAGCCUUGGUUUUUUG [A2G G69A] | -2.65
GGCCAAUCUGCCCUCAGAGCUCGAGAACAUCUUCGGAUGCAGAGGAGGCAGGCUUCGGUGGCGCGAUAGCGCCAACGUCCUCAACCUCCAAUGCAUCCCACCACAUGAUGAUGCCUAAAGAGCCUUGGUUUUUUG [A2G G117A] | -1.6
GGCCAAUCUGCCCUCAGAGCUCGAGAACAUCUUCGAAUGCAGAGGAGGGAGGCUUCGGUGGCGCGAUAUCGCCAACGUCCUCAACCUCCGAUGCAUUCCACCACAUGAUGAUGCCUGAACAGCCUUGGUUUUUUG [A2G G36A C49G G69U A90G C97U G120C] | 0.751
GUCCUAUAUGCCCUCAGAGCUCGAGAACAUCUUCGGAUGCAGAGGAGGCAGGCUUCGGUGGCGCGAUAGCGCCAACGUGCUCAACCUCCAAUGCAUCCCACCACAUGAUGAUGCGUGAAGAGCCUUGGUUUUUUG [A2U A5U C8A C79G C115G] | -5.43
GGCCAAUCUGCCCUCAGAGCUCGAGAACAUCUUCGGAUGCAGAGGAGGCAGGCUUCGGUGGCGCGAUAGCACCAACGUCCUCAACCUCCAAUGCAUCCCACCACAUGAUGAUGCCUGAAGAGCCUUGGUUUUUUG [A2G G71A] | -0.784
GGCCAAUCUGCCCUCAGAGCUCGAGAACAUCUUCGAAUGCAGAGGAGGGAGGCUUCGGUGGCGCGAUAGCGCCAACGUCCUCACCCUCCAAUGCAUCCCACCACAUGAUGAUGCCUGAAGAGACUGGGUUUUUUG [A2G G36A C49G A84C C123A U126G] | -2.7
GUCCAUUCUGCCCUCAGAGCUCGAGAACAUCUUCGGAUGCAGAGGAGGCAGGCUUCGGUGGCGCGAUAGCGCCAACGUCCUCAACCUCCAAUGCAUCCCACCACAUGAUGAUGCCUGAAAAGCCUUGGUUUUUUG [A2U A6U G120A] | 0.00399
GGCCAAUCUGCCCUCAGAGCUCGAGAACAUCUUCGGAUGCAGAAGAGGCAGGCUUCGGUGGCGCGAUAGCGCCAACGUCCUCAACCUCCAAUGCAUCCCACCACAUGAUGAUGCCUGAAGAGCCUUGGUUUUUUG [A2G G44A] | -0.766
GGCCAAUCUGCCCUCAGAGCUCGAGAACAUCUUCGGAUGCAGAGGAGGCAGGCUUCGGUGGCGCGAUAGCGCCAACGUCCUCAACCUCCAAUGCAUCCCACCACAUGAUGAUGCCUGAACAGCCUUGGUUUUUUG [A2G G120C] | 1.19
GGCCAAUCUGCCCUCAGAGCUCGAGAACAUCUUCGGAGGCAUAGGAGGCAGGCUUCGGUGGCGCGAUAGCGCCAACGUCCUCAACCUCCAAUGCAUCCCACCACAUGAUGAUGCUUGAAGAGCCUUGGUUUUUUG [A2G U38G G42U C115U] | -3.06
